Measured values: patent publication US20210371461

System: MePEG2-IEGR (TFA salt)

**Q.** How did the “luminescence signal (RLU) from substrate cleavage, 52 nM enzyme” value turn out when thrombin was run?
**A.** 52 nM thrombin yielded ˜30.000 RLU

**Q.** Which “Kcat (Vmax/[FXa])” value does the source give for Factor Xa here?
**A.** Kcat=Vmax/[FXa]=1.05×10^14 s^-1

**Q.** And the “luminescence signal (RLU) from substrate cleavage, 80 nM enzyme” value?
**A.** A concentration of 80 nm FXa yielded a signal of 1.000.000 RLU
